Results reported in publication PMC6701479, “KAP1 is an antiparallel dimer with a functional asymmetry” (Life Science Alliance, 2019).
One block for each binder: values may come before it.

Assays:
Atto 532–labeled HP1α = Atto 532–labeled HP1α (UniProt P45973 1-191, Atto 532 on a tripeptide (Thz-G2-C3-CONH2, thiazolidine opened) joined to the C terminus; C-terminal amide); assay: cell-based or functional assay
[1] = target: the molecule itself; assay: SEC-MALS; KAP1 constructs alone, 10 to 40 μM; Superose 6 10/300 GL; 20 mM Hepes pH 7.5, 300 mM NaCl, 2 mM TCEP

Atto 532–labeled HP1α, sequence (P45973 whole entry): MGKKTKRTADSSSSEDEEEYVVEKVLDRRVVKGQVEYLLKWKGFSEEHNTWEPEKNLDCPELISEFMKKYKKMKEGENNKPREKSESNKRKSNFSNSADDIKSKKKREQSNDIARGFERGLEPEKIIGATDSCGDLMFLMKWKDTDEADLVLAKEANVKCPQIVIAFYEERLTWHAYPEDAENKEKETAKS

slow residence time τ_(off,2) of HP1α on H3K9me3 chromatin fibers (smTIRF), KAP1 50 to 400 nM (Atto 532–labeled HP1α): ~3 fold
B1: KAP1 full-length protein (KAP1 FL, 1–835) (natural protein, human, UniProt Q13263 1-835, looked up)
chain: MAASAAAASAAAASAASGSPGPGEGSAGGEKRSTAPSAAASASASAAASSPAGGGAEALELLEHCGVCRERLRPEREPRLLPCLHSACSACLGPAAPAAANSSGDGGAAGDGTVVDCPVCKQQCFSKDIVENYFMRDSGSKAATDAQDANQCCTSCEDNAPATSYCVECSEPLCETCVEAHQRVKYTKDHTVRSTGPAKSRDGERTVYCNVHKHEPLVLFCESCDTLTCRDCQLNAHKDHQYQFLEDAVRNQRKLLASLVKRLGDKHATLQKSTKEVRSSIRQVSDVQKRVQVDVKMAILQIMKELNKRGRVLVNDAQKVTEGQQERLERQHWTMTKIQKHQEHILRFASWALESDNNTALLLSKKLIYFQLHRALKMIVDPVEPHGEMKFQWDLNAWTKSAEAFGKIVAERPGTNSTGPAPMAPPRAPGPLSKQGSGSSQPMEVQEGYGFGSGDDPYSSAEPHVSGVKRSRSGEGEVSGLMRKVPRVSLERLDLDLTADSQPPVFKVFPGSTTEDYNLIVIERGAAAAATGQPGTAPAGTPGAPPLAGMAIVKEEETEAAIGAPPTATEGPETKPVLMALAEGPGAEGPRLASPSGSTSSGLEVVAPEGTSAPGGGPGTLDDSATICRVCQKPGDLVMCNQCEFCFHLDCHLPALQDVPGEEWSCSLCHVLPDLKEEDGSLSLDGADSTGVVAKLSPANQRKCERVLLALFCHEPCRPLHQLATDSTFSLDQPGGTLDLTLIRARLQEKLSPPYSSPQEFAQDVGRMFKQFNKLTEDKADVQSIIGLQRFFETRMNEAFGDTKFSAVLVEPPPMSLPGAGLSSQELSGGPGDGP
notes: KAP1 (TRIM28, TIF1β), human, residues 1–835, complete full-length protein; His6 tag followed by a TEV protease cleavage site precedes the protein (pETDuet-1); no cleavage step is described; also called TIF1β; TRIM28; source: E. coli Rosetta (DE3) / Rosetta (DE3) pLys, purified (HisTrap, desalting, SEC)
stoichiometry N [1]: 2

B2: ΔKAP1 (23–812) (domain or fragment, human, UniProt Q13263 23-812, looked up)
chain: GEGSAGGEKRSTAPSAAASASASAAASSPAGGGAEALELLEHCGVCRERLRPEREPRLLPCLHSACSACLGPAAPAAANSSGDGGAAGDGTVVDCPVCKQQCFSKDIVENYFMRDSGSKAATDAQDANQCCTSCEDNAPATSYCVECSEPLCETCVEAHQRVKYTKDHTVRSTGPAKSRDGERTVYCNVHKHEPLVLFCESCDTLTCRDCQLNAHKDHQYQFLEDAVRNQRKLLASLVKRLGDKHATLQKSTKEVRSSIRQVSDVQKRVQVDVKMAILQIMKELNKRGRVLVNDAQKVTEGQQERLERQHWTMTKIQKHQEHILRFASWALESDNNTALLLSKKLIYFQLHRALKMIVDPVEPHGEMKFQWDLNAWTKSAEAFGKIVAERPGTNSTGPAPMAPPRAPGPLSKQGSGSSQPMEVQEGYGFGSGDDPYSSAEPHVSGVKRSRSGEGEVSGLMRKVPRVSLERLDLDLTADSQPPVFKVFPGSTTEDYNLIVIERGAAAAATGQPGTAPAGTPGAPPLAGMAIVKEEETEAAIGAPPTATEGPETKPVLMALAEGPGAEGPRLASPSGSTSSGLEVVAPEGTSAPGGGPGTLDDSATICRVCQKPGDLVMCNQCEFCFHLDCHLPALQDVPGEEWSCSLCHVLPDLKEEDGSLSLDGADSTGVVAKLSPANQRKCERVLLALFCHEPCRPLHQLATDSTFSLDQPGGTLDLTLIRARLQEKLSPPYSSPQEFAQDVGRMFKQFNKLTEDKADVQSIIGLQRFFETRMNEAFGDTKFSAVLVEP
notes: His6 tag and TEV site precede the protein; no cleavage step is described; source: E. coli Rosetta (DE3) / Rosetta (DE3) pLys, purified (HisTrap, desalting, SEC)
stoichiometry N [1]: 2

B3: KAP1 RBCC domain (RBCC, 23–418) (domain or fragment, human, UniProt Q13263 23-418, looked up)
chain: GEGSAGGEKRSTAPSAAASASASAAASSPAGGGAEALELLEHCGVCRERLRPEREPRLLPCLHSACSACLGPAAPAAANSSGDGGAAGDGTVVDCPVCKQQCFSKDIVENYFMRDSGSKAATDAQDANQCCTSCEDNAPATSYCVECSEPLCETCVEAHQRVKYTKDHTVRSTGPAKSRDGERTVYCNVHKHEPLVLFCESCDTLTCRDCQLNAHKDHQYQFLEDAVRNQRKLLASLVKRLGDKHATLQKSTKEVRSSIRQVSDVQKRVQVDVKMAILQIMKELNKRGRVLVNDAQKVTEGQQERLERQHWTMTKIQKHQEHILRFASWALESDNNTALLLSKKLIYFQLHRALKMIVDPVEPHGEMKFQWDLNAWTKSAEAFGKIVAERPGTNST
notes: KAP1 (TRIM28), human, RBCC domain (RING, B-box 1, B-box 2, coiled coil), residues 23–418; His6 tag and TEV site precede the protein; no cleavage step is described; also called N-terminal RBCC domain of KAP1; source: E. coli Rosetta (DE3) / Rosetta (DE3) pLys, purified (HisTrap, desalting, SEC)
stoichiometry N [1]: 2
